Source: patent US20080269139A1 (GENENCOR INTERNATIONAL, published 2008)
Substitutions are numbered along the chain they refer to.

T1: FGF-5 (UniProt P12034 23-268, limits assumed, biotinylated with EZ-Link Sulfo-NHS-Biotin in the BioVeris assay only)
T1 construct: also called bFGF5 (biotinylated, BioVeris assay); FGF-5, carrier-free (R&D Systems #237-F5/CF)
T1 sequence (looked up): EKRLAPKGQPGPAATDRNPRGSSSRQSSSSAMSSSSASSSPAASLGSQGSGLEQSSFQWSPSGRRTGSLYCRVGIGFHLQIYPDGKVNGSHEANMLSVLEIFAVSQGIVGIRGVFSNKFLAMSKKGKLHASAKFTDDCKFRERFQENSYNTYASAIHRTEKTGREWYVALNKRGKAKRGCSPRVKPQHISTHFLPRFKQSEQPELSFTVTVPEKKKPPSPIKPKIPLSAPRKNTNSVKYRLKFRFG

B1: 2H9 peptide-BLA fusion (other)
chain: CHYLLTNYCTPVSEKQLAEVVANTITPLMKAQSVPGMAVAVIYQGKPHYYTFGKADIAANKPVTPQTLFELGSISKTFTGVLGGDAIARGEISLDDAVTRYWPQLTGKQWQGIRMLDLATYTAGGLPLQVPDEVTDNASLLRFYQNWQPQWKPGTTRLYANASIGLFGALAVKPSGMPYEQAMTTRVLKPLKLDHTWINVPKAEEAHYAWGYRDGKAVRVSPGMLDAQAYGVKTNVQDMANWVMANMAPENVADASLKQGIALAQSRYWRIGSMYQGLGWEMLNWPVEANTVVEGSDSKVALAPLPVAEVNPPAPPVKASWVHKTGSTGGFGSYVAFIPEKQIGIVMLANTSYPNPARVEAAYHILEALQHHHHHH
B2: 1A6 peptide-BLA fusion (other)
chain: B1 chain with H2E, Y3E, L4I, L5W, N7M, Y8L
B3: 2H10 peptide-BLA fusion (other)
chain: B1 chain with H2R, Y3I, L4H, T6A, N7H, Y8K
B4: 2E2 peptide-BLA fusion (other)
chain: B1 chain with H2L, Y3T, L4V, T6W, N7T, Y8T

These binders were tested against T1, FGF-5 (assay: BLA binding assay, purified peptide-BLA fusion on FGF-5-coated plate, nitrocefin).

Binder | Percent Bound at 0.1 nM
B1 | 5%
B2 | 8%
B3 | 8%
B4 | 7%
